Assay results published in patent US20090117640A1.
Positions count from the first letter of the chain named. Numbers in names are those of the source. Each block holds one binder with its values, some of them ahead of it.

Assays:
Assay in all cases: cell-based or functional assay
hGH mutant Q40N (human) = hGH mutant Q40N (human) (UniProt P01241)
hGH mutant Q141N (human) = hGH mutant Q141N (human) (UniProt P01241)
[1] = molecular target: Human growth hormone (human) (UniProt P01241)
Human growth hormone (human), sequence (P01241 27-217 limits assumed): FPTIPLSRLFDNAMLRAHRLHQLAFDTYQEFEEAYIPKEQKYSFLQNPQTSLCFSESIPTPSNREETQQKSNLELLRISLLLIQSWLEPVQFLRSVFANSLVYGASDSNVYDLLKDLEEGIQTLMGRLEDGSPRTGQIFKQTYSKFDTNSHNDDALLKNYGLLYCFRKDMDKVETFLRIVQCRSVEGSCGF

hGH mutant Q40N (human), sequence (P01241 27-217 Q66N): as the sequence (P01241 27-217 limits assumed) above, with Q40N counted along it
hGH mutant Q141N (human), sequence (P01241 27-217 Q167N): as the sequence (P01241 27-217 limits assumed) above, with Q141N counted along it

Gln 40 vs Gln 141 (normalized), Gln 141 share (normalized ratio) (hGH mutant Q40N (human)): 89
HPLC peak area of remaining hGH-Q40N (area (arbitrary units)) (hGH mutant Q40N (human)): 375
Gln 40 vs Gln 141 (normalized), Gln 40 share (normalized ratio) (hGH mutant Q141N (human)): 11
HPLC peak area of remaining hGH-Q141N (area (arbitrary units)) (hGH mutant Q141N (human)): 1160
B1: TGase from Streptoverticillium ladakanum (enzyme)
chain: DSDERVTPPAEPLDRMPDPYRPSYGRAETIVNNYIRKWQQVYSHRDGRKQQMTEEQREWLSYGCVGVTWVNSGQYPTNRLAFAFFDEDKYKNELKNGRPRSGETRAEFEGRVAKDSFDEAKGFQRARDVASVMNKALENAHDEGAYLDNLKKELANGNDALRNEDARSPFYSALRNTPSFKDRNGGNHDPSKMKAVIYSKHFWSGQDRSGSSDKRKYGDPEAFRPDRGTGLVDMSRDRNIPRSPTSPGESFVNFDYGWFGAQTEADADKTVWTHGNHYHAPNGSLGAMHVYESKFRNWSDGYSDFDRGAYVVTFVPKSWNTAPDKVKQGWP

Gln 40 vs Gln 141 (normalized), Gln 141 share (normalized ratio) (hGH mutant Q40N (human)): 79
HPLC peak area of remaining hGH-Q40N (area (arbitrary units)) (hGH mutant Q40N (human)): 519
About 50% hGH reacted at t=, enzyme 0.07 µM (min (printed in h and min)) [1]: 75
Transamination Gln 40 vs Gln 141 (Gln 40 share), CE, enzyme 0.07 µM (share of mono-transamination products) [1]: 15
Transamination Gln 40 vs Gln 141 (Gln 141 share), CE, enzyme 0.07 µM (share of mono-transamination products) [1]: 85
Gln 40 vs Gln 141 (normalized), Gln 40 share (normalized ratio) (hGH mutant Q141N (human)): 21
HPLC peak area of remaining hGH-Q141N (area (arbitrary units)) (hGH mutant Q141N (human)): 1290
B2: TGase from S. mobaraense (wild type) (enzyme)
chain: DSDDRVTPPAEPLDRMPDPYRPSYGRAETVVNNYIRKWQQVYSHRDGRKQQMTEEQREWLSYGCVGVTWVNSGQYPTNRLAFASFDEDRFKNELKNGRPRSGETRAEFEGRVAKESFDEEKGFQRAREVASVMNRALENAHDESAYLDNLKKELANGNDALRNEDARSPFYSALRNTPSFKERNGGNHDPSRMKAVIYSKHFWSGQDRSSSADKRKYGDPDAFRPAPGTGLVDMSRDRNIPRSPTSPGEGFVNFDYGWFGAQTEADADKTVWTHGNHYHAPNGSLGAMHVYESKFRNWSEGYSDFDRGAYVITFIPKSWNTAPDKVKQGWP

About 50% hGH reacted at t=, enzyme 3.90 µM [1]: < 30 min
Transamination Gln 40 vs Gln 141 (Gln 40 share), CE, enzyme 3.90 µM (share of mono-transamination products) [1]: 45
Transamination Gln 40 vs Gln 141 (Gln 141 share), CE, enzyme 3.90 µM (share of mono-transamination products) [1]: 55
B3: Y75E TGase (enzyme)
chain: B2 chain with Y75E

About 50% hGH reacted at t=, enzyme 0.39 µM [1]: 30 min
Transamination Gln 40 vs Gln 141 (Gln 40 share), CE, enzyme 0.39 µM (share of mono-transamination products) [1]: 30
Transamination Gln 40 vs Gln 141 (Gln 141 share), CE, enzyme 0.39 µM (share of mono-transamination products) [1]: 70
B4: Y302R TGase (enzyme)
chain: B2 chain with Y302R

About 50% hGH reacted at t=, enzyme 7.20 µM (min (printed in h and min)) [1]: 90
Transamination Gln 40 vs Gln 141 (Gln 40 share), CE, enzyme 7.20 µM (share of mono-transamination products) [1]: 65
Transamination Gln 40 vs Gln 141 (Gln 141 share), CE, enzyme 7.20 µM (share of mono-transamination products) [1]: 35
B5: Y75E, Y302R TGase (enzyme)
chain: B2 chain with Y75E, Y302R
